According to paper PMC5680807 (mAbs, 2017):
Positions count from the first letter of the chain named.

B1: AFD.v9 (Fab, V domains shown)
VH: EVQLVQSGPELKKPGASVKVSCKASGYTFTNYGMNWVRQAPGQGLEWMGWINTYTGETTYAEDFKGRFVFSLDTSVSTAYLQISSLKAEDTAVYYCEREGGVNNWGQGTLVTVSS
VL: DIQVTQSPSSLSASVGDRVTITCITSTSIESDMSWYQQKPGKVPKLLISGGNTLRPGVPSRFSGSGSGTDFTLTISSLQPEDVATYYCLQSDSLPYTFGQGTKVEIK
B2: AFD.v5 (Fab, V domains shown)
VH: B1 VH with E62D
VL: B1 VL with E30D, D32S, S34N
B3: AFD.v6 (Fab, V domains shown)
VH: B1 VH
VL: B1 VL with S28D, S34N
B4: AFD.v4 (Fab, V domains shown)
VH: B1 VH with E62D
VL: B1 VL with S28D, E30D, S31D, D32S, S34N
B5: AFD.v8 (Fab, V domains shown)
VH: B1 VH
VL: B1 VL with S34N
B6: AFD.v7 (Fab, V domains shown)
VH: B1 VH
VL: B1 VL with S28D, S34N, D92E
B7: AFD.v1 (Fab, V domains shown)
VH: B1 VH with E62D
VL: B1 VL with E30D, S31D, S34N
B8: AFD.v3 (Fab, V domains shown)
VH: B1 VH with E62D
VL: B1 VL with S28D, E30D, S34N
B9: AFD.v2 (Fab, V domains shown)
VH: B1 VH with E62D
VL: B1 VL with S28D, S31D, S34N
B10: AFD.v14 (Fab, V domains shown)
VH: B1 VH with N103S
VL: B1 VL with S34N

What follows are molecules tested against human complement factor D (CFD) (Homo sapiens, UniProt P00746) (assay: SPR).
B1 gave a Kd of 0.03 nM. Work on B2 yielded a Kd of 0.28 nM. B3 was tested, and the Kd was no more than 0.01 nM. B4 gave a Kd of 0.026 nM. With B5 the Kd was 0.0167 ± 0.0044 nM. B6 gave a Kd of no more than 0.01 nM. B7 was tested, and the Kd was no more than 0.01 nM. For B8, the Kd was no more than 0.01 nM. B9 showed a Kd of no more than 0.01 nM. For B10, the Kd was 0.0256 ± 0.0063 nM.

These molecules were tested against basic species of AFD (VL Asp-30 isomerized to the cyclic intermediate form) (assay: not given).
For “human complement factor D (CFD) (from UniProt P00746 26-253) (enzyme)”, the fold decrease in CFD-binding affinity against AFD was 2 fold.
